Data published in patent EP4696707A1.

The binders below were run against ATP5B protein (UniProt P06576) (assay: SPR, ATP5B amine-coupled to CM5 chip, peptide in flow at 50 µl/min; binding relative to SEQ ID NO: 12).
Chain of ATP5B protein (P06576 48-529 limits assumed): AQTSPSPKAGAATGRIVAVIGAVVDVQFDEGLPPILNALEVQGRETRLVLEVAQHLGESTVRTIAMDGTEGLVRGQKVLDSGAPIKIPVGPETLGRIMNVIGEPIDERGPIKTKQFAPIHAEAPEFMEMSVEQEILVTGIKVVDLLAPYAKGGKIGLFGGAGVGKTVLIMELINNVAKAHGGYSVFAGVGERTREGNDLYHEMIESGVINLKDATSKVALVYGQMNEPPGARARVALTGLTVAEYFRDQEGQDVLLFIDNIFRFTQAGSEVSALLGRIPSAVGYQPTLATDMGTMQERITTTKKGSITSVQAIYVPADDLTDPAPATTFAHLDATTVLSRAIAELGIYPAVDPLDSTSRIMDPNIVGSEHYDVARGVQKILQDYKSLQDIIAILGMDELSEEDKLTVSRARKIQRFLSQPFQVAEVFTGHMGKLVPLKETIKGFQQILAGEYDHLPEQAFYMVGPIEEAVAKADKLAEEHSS

**Q.** VDRGAGSIAEAGGAFGKREQAEEERYFR [Shortened substance (8-35) amino acid Ala substituted (16)] was tested. Which Binding (%) did it give?
**A.** 97%

**Q.** VDRGAGSIREAGGAFGKREQAAEERYFR [Shortened substance (8-35) amino acid Ala substituted (29)] was tested. Which Binding (%) did it give?
**A.** 96.7%

**Q.** With VDRGAGSAREAGGAFGKREQAEEERYFR [Shortened substance (8-35) amino acid Ala substituted (15)] as the binder, how does the Binding (%) read?
**A.** 99.3%

**Q.** For VDRGAGSIRAAGGAFGKREQAEEERYFR [Shortened substance (8-35) amino acid Ala substituted (17)], which Binding (%) is on record?
**A.** 169%

**Q.** Which Binding (%) does the source give for VDRGAGSIREAGGAFGKREQAEAERYFR [Shortened substance (8-35) amino acid Ala substituted (30)] here?
**A.** 94%

**Q.** How did the Binding (%) turn out when VDRGAGSIREAGGAFGKREQAEEARYFR [Shortened substance (8-35) amino acid Ala substituted (31)] was run?
**A.** 158%

**Q.** How did the Binding (%) turn out when VDRGAASIREAGGAFGKREQAEEERYFR [Shortened substance (8-35) amino acid Ala substituted (13)] was run?
**A.** 98.5%

**Q.** VDRGAGSIREAGAAFGKREQAEEERYFR [Shortened substance (8-35) amino acid Ala substituted (20)] was tested. Which Binding (%) did it give?
**A.** 68%

**Q.** With VDAGAGSIREAGGAFGKREQAEEERYFR [Shortened substance (8-35) amino acid Ala substituted (10)] as the binder, how does the Binding (%) read?
**A.** 104%

**Q.** VDRGAGSIREAGGAFGKREQAEEERYFR [Shortened substance (8-35)] was tested. Which Binding (%) did it give?
**A.** 100%

**Q.** How did the Binding (%) turn out when VDRGAGSIREAGGAFGKREQAEEERAFR [Shortened substance (8-35) amino acid Ala substituted (33)] was run?
**A.** 146%

**Q.** With VDRGAGSIREAGGAFGKREQAEEEAYFR [Shortened substance (8-35) amino acid Ala substituted (32)] as the binder, how does the Binding (%) read?
**A.** 426%

**Q.** How did the Binding (%) turn out when VARGAGSIREAGGAFGKREQAEEERYFR [Shortened substance (8-35) amino acid Ala substituted (9)] was run?
**A.** 91.6%

**Q.** VDRAAGSIREAGGAFGKREQAEEERYFR [Shortened substance (8-35) amino acid Ala substituted (11)] was tested. Which Binding (%) did it give?
**A.** 100%

**Q.** With VDRGAGSIREAGGAFGKREAAEEERYFR [Shortened substance (8-35) amino acid Ala substituted (27)] as the binder, how does the Binding (%) read?
**A.** 89.5%

**Q.** With VDRGAGSIREAAGAFGKREQAEEERYFR [Shortened substance (8-35) amino acid Ala substituted (19)] as the binder, how does the Binding (%) read?
**A.** 89.6%

**Q.** Which Binding (%) does the source give for VDRGAGSIREAGGAFGKAEQAEEERYFR [Shortened substance (8-35) amino acid Ala substituted (25)] here?
**A.** 85.2%

**Q.** Which Binding (%) does the source give for VDRGAGSIREAGGAFAKREQAEEERYFR [Shortened substance (8-35) amino acid Ala substituted (23)] here?
**A.** 102%

**Q.** With VDRGAGSIREAGGAAGKREQAEEERYFR [Shortened substance (8-35) amino acid Ala substituted (22)] as the binder, how does the Binding (%) read?
**A.** 94%

**Q.** Which Binding (%) does the source give for VDRGAGSIREAGGAFGKRAQAEEERYFR [Shortened substance (8-35) amino acid Ala substituted (26)] here?
**A.** 94.1%

**Q.** How did the Binding (%) turn out when VDRGAGSIREAGGAFGAREQAEEERYFR [Shortened substance (8-35) amino acid Ala substituted (24)] was run?
**A.** 100%

**Q.** For VDRGAGSIREAGGAFGKREQAEEERYAR [Shortened substance (8-35) amino acid Ala substituted (34)], which Binding (%) is on record?
**A.** 92.1%

**Q.** For ADRGAGSIREAGGAFGKREQAEEERYFR [Shortened substance (8-35) amino acid Ala substituted (8)], which Binding (%) is on record?
**A.** 101%

**Q.** How did the Binding (%) turn out when VDRGAGSIREAGGAFGKREQAEEERYFA [Shortened substance (8-35) amino acid Ala substituted (35)] was run?
**A.** 110%

**Q.** VDRGAGAIREAGGAFGKREQAEEERYFR [Shortened substance (8-35) amino acid Ala substituted (14)] was tested. Which Binding (%) did it give?
**A.** 98.8%
